Our source for the binding result and EC50 values is patent US20110294748A1 (Janssen / Centocor, published 2011).

Ends that are not written are not given here.

Usually EC50 stands for the concentration at which the effect is half-maximal. Low readings indicate higher potency in that assay, high ones lower potency in that assay.

The labels stand for the following.
B1: peptide-Alkaline phosphatase-His6 fusion protein of clone 5 (other)
chain: TGCDFPELCRGCHPTPEMPVLENRAAQGDITTPGGARRLTGDQTAALRDSLSDKPAKNIILLIGDGMGDSEITAARNYAEGAGGFFKGIDALPLTGQYTHYALNKKTGKPDYVTDSAASATAWSTGVKTYNGALGVDIHEKDHPTILEMAKAAGLATGNVSTAELQGATPAALVAHVTSRKCYGPSATSEKCPGNALEKGGKGSITEQLLNARADVTLGGGAKTFAETATAGEWQGKTLREQAQTRGYQLVSDAASLNSVTEANQQKPLLGLFADGNMPVRWLGPKATYHGNIDKPAVTCTPNPQRNDSVPTLAQMTDKAIELLSKNEKGFFLQVEGASIDKQNHAANPCGQIGETVDLDEAVQRALEFAKKEGNTLVIVTADHAHASQIVAPDTKAPGLTQALNTKDGAVMVMSYGNSEEDSQEHTGSQLRIAAYGPHAANVVGLTDQTDLFYTMKAALGLKVPGGSGGGSGGGSGGGSGTPEMPVLENRAAQGDITTPGGARRLTGDQTAALRDSLSDKPAKNIILLIGDGMGDSEITAARNYAEGAGGFFKGIDALPLTGQYTHYALNKKTGKPDYVTDSAASATAWSTGVKTYNGALGVDIHEKDHPTILEMAKAAGLATGNVSTAELQGATPAALVAHVTSRKCYGPSATSEKCPGNALEKGGKGSITEQLLNARADVTLGGGAKTFAETATAGEWQGKTLREQAQTRGYQLVSDAASLNSVTEANQQKPLLGLFADGNMPVRWLGPKATYHGNIDKPAVTCTPNPQRNDSVPTLAQMTDKAIELLSKNEKGFFLQVEGASIDKQNHAANPCGQIGETVDLDEAVQRALEFAKKEGNTLVIVTADHAHASQIVAPDTKAPGLTQALNTKDGAVMVMSYGNSEEDSQEHTGSQLRIAAYGPHAANVVGLTDQTDLFYTMKAALGLKVPGNSHHHHHH
notes: Tested as bacterial culture supernatant; also called peptide-AP fusion clone 5
B2: PG-peptide fusion of clone 11 (protein G IgG domain with peptide SEQ ID NO: 7 at its C-terminus) (other)
chain: YKLILNGKTLKGETTTEAVDAATAEKVFKQYANDNGVDGEWTYDDATKTFTVTEHTCFYPTLMPPELCFD
notes: also called PG-peptide fusion clone 11
B3: PG-peptide fusion of clone 5 (protein G IgG domain with peptide SEQ ID NO: 1 at its C-terminus) (other)
chain: YKLILNGKTLKGETTTEAVDAATAEKVFKQYANDNGVDGEWTYDDATKTFTVTETGCDFPELCRGCHP
notes: also called PG-peptide fusion clone 5
B4: PG-peptide fusion of clone 14 (protein G IgG domain with peptide SEQ ID NO: 10 at its C-terminus) (other)
chain: YKLILNGKTLKGETTTEAVDAATAEKVFKQYANDNGVDGEWTYDDATKTFTVTEVECDTPSITFSPGLEALFWNTCSP
notes: also called PG-peptide fusion clone 14
B5: PG-peptide fusion of clone 10 (protein G IgG domain with peptide SEQ ID NO: 6 at its C-terminus) (other)
chain: YKLILNGKTLKGETTTEAVDAATAEKVFKQYANDNGVDGEWTYDDATKTFTVTELSCYDPTLRTLYCHV
notes: also called PG-peptide fusion clone 10
B6: PG-peptide fusion of clone 16 (protein G IgG domain with peptide SEQ ID NO: 12 at its C-terminus) (other)
chain: YKLILNGKTLKGETTTEAVDAATAEKVFKQYANDNGVDGEWTYDDATKTFTVTEAGCPSPMPPVDPGFYSAIVQLCRE
notes: also called PG-peptide fusion clone 16
B7: PG-peptide fusion of clone 7 (protein G IgG domain with peptide SEQ ID NO: 3 at its C-terminus) (other)
chain: YKLILNGKTLKGETTTEAVDAATAEKVFKQYANDNGVDGEWTYDDATKTFTVTEPFCYSGGPLPYPCTY
notes: also called PG-peptide fusion clone 7
B8: PG-peptide fusion of clone 9 (protein G IgG domain with peptide SEQ ID NO: 5 at its C-terminus) (other)
chain: YKLILNGKTLKGETTTEAVDAATAEKVFKQYANDNGVDGEWTYDDATKTFTVTEFTCAVYSLSELDCRD
notes: also called PG-peptide fusion clone 9
B9: PG-peptide fusion of clone 6 (protein G IgG domain with peptide SEQ ID NO: 2 at its C-terminus) (other)
chain: YKLILNGKTLKGETTTEAVDAATAEKVFKQYANDNGVDGEWTYDDATKTFTVTEAECEWPWLTLELCQS
notes: also called PG-peptide fusion clone 6
B10: PG-peptide fusion of clone 12 (protein G IgG domain with peptide SEQ ID NO: 8 at its C-terminus) (other)
chain: YKLILNGKTLKGETTTEAVDAATAEKVFKQYANDNGVDGEWTYDDATKTFTVTESNCPPLDMRLTELCVM
notes: also called PG-peptide fusion clone 12
B11: PG-peptide fusion of clone 8 (protein G IgG domain with peptide SEQ ID NO: 4 at its C-terminus) (other)
chain: YKLILNGKTLKGETTTEAVDAATAEKVFKQYANDNGVDGEWTYDDATKTFTVTEPVCPSFCYDQYVCPT
notes: also called PG-peptide fusion clone 8

One experiment has as its target T1, soluble IGF1R (sIGF1R), extracellular domain of human insulin-like growth factor 1 receptor, carboxy-terminal … (human, UniProt P08069 31-932).
T1 construct: Bought from R&D Systems; GenBank NP-000866 is printed for the whole receptor; also called IFG1R
Description: solid phase phage ELISA, phage lysate on coated sIGF1R. As for the experimental part:
Total of 384 individual phage lysates from the panning were tested for binding specificity towards sIGF1R in a solid phase phage ELISA. Briefly, 100 μl/well of 5 μg/ml sIGF1R (R&D Systems, Minneapolis, Minn.) was bound to Black Maxisorp Plates (Nunc, Rochester, N.Y.), 25 μl of phage lysate added, and the reaction was detected using anti-M13-HRP antibody (EMD Biosciences, Gibbstown, N.J.) and POD substrate (Roche, Indianapolis, Ind.), and the signal detected using a TEKAN plate reader. […] Positive lysates were defined as clones with a sIGF1R specific signal that was three fold above the background of the negative control. A total of 13 clones with unique peptide sequences were obtained with confirmed binding to the sIGF1R (Table 1). From these 13 clones, 3 (clones 5, 13 and 16) cross-reacted with the insulin receptor.
(In an ELISA, binding on a coated surface is turned into a signal by an enzyme label.)
In the case of FTCAVYSLSELDCRD (peptide, not shown: large carriers, cysteine pairing not given here; also: displayed on phage pIX, Tested as phage lysate) [phage clone 9 (peptide SEQ ID NO: 5 displayed on pIX phage)], the binding result was “binds”.
Turning to LSCYDPTLRTLYCHV (peptide, not shown: large carriers, cysteine pairing not given here; also: displayed on phage pIX, Tested as phage lysate) [phage clone 10 (peptide SEQ ID NO: 6 displayed on pIX phage)], the binding result is given as “binds”.
In the case of DDIDEFLHQLHNLVNNVH (peptide, not shown: large carriers, Tested as phage lysate) [phage clone 17 (peptide SEQ ID NO: 13 displayed on pIX phage)], the binding result is on record as “binds”.
Still for that read-out and setting: with HTCFYPTLMPPELCFD (peptide, not shown: large carriers, cysteine pairing not given here; also: displayed on phage pIX, Tested as phage lysate) [phage clone 11 (peptide SEQ ID NO: 7 displayed on pIX phage)] the entry was “binds”.
With AECEWPWLTLELCQS (peptide, not shown: large carriers, cysteine pairing not given here; also: displayed on phage pIX, Tested as phage lysate) [phage clone 6 (peptide SEQ ID NO: 2 displayed on pIX phage)], the binding result is on record as “binds”.
For PFCYSGGPLPYPCTY (peptide, not shown: large carriers, cysteine pairing not given here; also: displayed on phage pIX, Tested as phage lysate) [phage clone 7 (peptide SEQ ID NO: 3 displayed on pIX phage)], the binding result is “binds”.
As to VECDTPSITFSPGLEALFWNTCSP (peptide, not shown: large carriers, cysteine pairing not given here; also: displayed on phage pIX, Tested as phage lysate) [phage clone 14 (peptide SEQ ID NO: 10 displayed on pIX phage)], the binding result is “binds”.
On to AGCPSPMPPVDPGFYSAIVQLCRE (peptide, not shown: large carriers, cysteine pairing not given here; also: displayed on phage pIX, Tested as phage lysate) [phage clone 16 (peptide SEQ ID NO: 12 displayed on pIX phage)], for which the binding result was “binds”.
Regarding TGCDFPELCRGCHP (peptide, not shown: large carriers, cysteine pairing not given here; also: displayed on phage pIX, Tested as phage lysate) [phage clone 5 (peptide SEQ ID NO: 1 displayed on pIX phage)], the binding result is on record as “binds”.
With PVCPSFCYDQYVCPT (peptide, not shown: large carriers, cysteine pairing not given here; also: displayed on phage pIX, Tested as phage lysate) [phage clone 8 (peptide SEQ ID NO: 4 displayed on pIX phage)], the binding result is listed as “binds”.
Regarding SNCPPLDMRLTELCVM (peptide, not shown: large carriers, cysteine pairing not given here; also: displayed on phage pIX, Tested as phage lysate) [phage clone 12 (peptide SEQ ID NO: 8 displayed on pIX phage)], the binding result is “binds”.

The next experiment deals with T1, soluble IGF1R (sIGF1R), extracellular …. Description: ELISA, culture supernatant on 2 µg/ml coated sIGF1R, Attophos detection. As for the experimental part:
The binding of purified peptide-AP fusion proteins to sIGF1R was assessed using ELISA against immobilized sIGF1R. Briefly, bacteria transformed with each peptide-AP fusion expression vector were grown overnight and the following day the cultures were clarified by centrifugation at 4,500 rpm, 4° C. The supernatants were collected and 75 μl of each supernatant was assayed for binding to 2 μg/ml sIGF1R immobilized on ELISA plates. The bound peptides were detected using the Attophos Substrate (Roche, Indianapolis, Ind.) following the manufacturer's recommendation and read using a Molecular Devices M5 plate reader.
Take B1: the binding result is listed as “binds”.

For another experiment the target is unchanged. Description: ELISA, serially diluted PG-peptide fusion on coated sIGF1R, one site binding fit. As for the experimental part: Relative binding affinities of the PG-peptide fusions for sIGF1R were measured using ELISA. The Kds were determined using GraphPad Prism 4 software with a one site binding equation. 100 μl of 2 μg/ml sIGF1R(R&D Systems, Minneapolis, Minn.) in Dulbecco's Phosphate Buffer Saline (DPBS (−/−)) was coated onto a 96 well Black Maxisorp plates (Nunc, Rochester, N.Y.) overnight at 4° C. The plates were washed with TBST and the wells blocked with 200 μl/well Starting Block T20 (TBS) (Pierce, Rockford, Ill.) for 1 hr, room temperature with 300 rpm shaking. 75 μl/well of purified, serially diluted PG-peptide fusions, starting concentration 40 μM, was added into the wells and incubated for 1 h, room temperature with 300 rpm mixing; the volume was brought up to 100 μl with Starting Block T20. The plates were washed 3× with TBST and then probed with 100 μl/well Peroxidase labeled-Rabbit antibody (1:5000) (Rockland, Gilbertsville, Pa.), washed, and the signal was detected using 100 μl/well POD substrate (Roche, Indianapolis, Ind.). Chemiluminescence was detected using a Molecular Devices M5 plate reader.
In turn, B2 came in with a half-maximal effective concentration (EC50) of 1200 nM.
Still for that read-out and setting: with B3 the figure was 750 nM.
Turning to B4, the EC50 came out at 850 nM. The EC50 values of the last two molecules are within 1.5-fold of each other.
As to B5, the EC50 was 4300 nM.
B6: the EC50 is 8200 nM.
For the molecule B7, the EC50 was 1800 nM. This EC50 lies about 4.6-fold lower than the previous one.
With B8, the 50% effective concentration (EC50) is 3500 nM. This EC50 lies about 1.9-fold higher than the previous one.
In turn, B9 registered an EC50 of 1000 nM. This EC50 is about 3.5-fold lower than that of the molecule before.
In turn, B10 registered an EC50 of 1800 nM. Compared with the last molecule, the EC50 is about 1.8-fold higher.
The molecule B11 yielded an EC50 of 1600 nM.
